# Source: the supplement of paper PMC9170038
# Key:
# MS2 coat protein [1] = test: apparent KD of MS2 coat protein; higher = weaker reporter binding; conditions: Eterna round: R101
# Experimental: (§1)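 RNA-MaP: designed FMN/MS2 RNA switches (84 nt design region) are transcribed on-chip within common flanks and titrated with SNAP-549-labelled MS2 coat protein (about 1-3000 nM) in 100 mM Tris pH 7.5, 80 mM KCl, 4 mM MgCl2, without or with 200 uM FMN. Median apparent KD per design; activation ratio = KD,OFF / KD,ON.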
# MS2 coat protein [2] = test: apparent KD of MS2 coat protein; designed switch direction (-1 OFF switch, 1 ON switch): -1; higher = weaker reporter binding; conditions: Eterna round: R98
# Experimental: as §1
# MS2 coat protein [3] = test: apparent KD of MS2 coat protein; designed switch direction (-1 OFF switch, 1 ON switch): 1; higher = weaker reporter binding; conditions: Eterna round: R98
# Experimental: as §1
Sequence,apparent KD of MS2 coat protein (MS2 coat protein [1]; input ligand: FMN 200 uM) [nM],apparent KD of MS2 coat protein (MS2 coat protein [1]; input ligand: none) [nM],apparent KD of MS2 coat protein (MS2 coat protein [2]; input ligand: FMN 200 uM) [nM],apparent KD of MS2 coat protein (MS2 coat protein [2]; input ligand: none) [nM],further results
AUGGAUAUCACAGGAUAUGAUAUGGAUACCAUAUCAGAAGGGUGACCCAUCCUAUGUAAAUACAUGAGGAUCACCCAUGUGUCC [Sara'sguidence+#HughScoreProbStacks#11] (puzzle (switch architecture): Same State NG 1),340,640,–,–,–
UAUUAUAUAUAGAAGGACAUGAGGAUCACCCAUGUCGCCGGGCCCGGGAAACCGGGCCCGGCCAUGUAGGAUAUAUAUAUGGUA [#This is a good prank 8] (puzzle (switch architecture): Inverted Exclusion NG 2),6.2,6.38,–,–,–
AUAUAUAUUUAGAAGGACAUGAGGAUCACCCAUGUCGCCGGGCCCGGGAAACCGGGCCCGGCCAUGUAGGAUAUAGAUAUAUAU [#This is a good prank 13] (puzzle (switch architecture): Inverted Exclusion NG 2),9.05,6.41,–,–,–
AGAAACUACGAGAAGGACAUGUGGUCCUUCAAAACCAUGAGGAUCACCCAUGUAGGAUAUCGUAGUUUCAGGAUCGUGAGAUCA [salish99_ISLExNG1_023 #HINGE] (puzzle (switch architecture): Inverted Small Loop Exclusion NG 1),12.1,268,–,–,–
GGAGACCUUACAGGAUAUGCUGGACUUUGUCCAGCAGAAGGGUGAAAACAUGAGGAUCACCCAUGUAUGGUCUCCAAAUUUAAU [jl-ssng1-3.02 #GU_VS_GC_SWITCHING] (puzzle (switch architecture): Same State NG 1),21.2,19.1,–,–,–
CGAUAUAUGAAGGGCAAACGCCCACAUGAGGAUCACCCAUGUAGAAGGCGAUCCGCAACGCGGAUCGAGGAUAUAUAGUAUACA [#my 15th design] (puzzle (switch architecture): Inverted Exclusion NG 3),10.6,11.2,–,–,–
GCAGCUAAUGCAGGAUAUCAGCACGUGUAGUGCUGAGAAGGGCACAUGAGGAUCACCCAUGUGAUCAAUUAAUGUUAAUGCUGC [ExNG1 1 #C-Saturation] (puzzle (switch architecture): Exclusion NG 1),15.2,6.82,–,–,–
AAUAAUUCUUAAGGAUAUGACUCCGAAACGGAGUCAGAAGGUGAGGAUCACCCACCUAGCUCAGCGUCGAAAGACGCUGAGCAA [#SharedSequence ExNG1 - 31] (puzzle (switch architecture): Exclusion NG 1),12.7,10.5,–,–,–
AUGACAGGCAGAGCGCAACGGCGUACAUGAGGAUCACCCAUGUAGGAUAUACUACACAAAGUGUAGUAGAAGGACAUGCGACGG [Ex NG2 #89],–,–,69,35.8,–
UGUUGUUACGCAGGAUAUUGCCAACAGGCAGUAGGAUAUCCGAAAGGAGAAGGAUCGCCAACAGGCGAGAAGGGCGGGUUAACA [pwkr exNG2 2xF7 2FMN.10.2],–,–,194,706,–
AUGACAGGCAGAGCGCAACGGCGUACAUGAGGAUCACCCAUGUAGGAUAUACUACACAAAGUGUAGUAGAAGGACAUGCGACGC [Ex NG2 #87],–,–,34.4,23.2,–
GGGUACAUCGGAGGAUAUCAUGUAUAUACAUGAGGAUCACCCAUGUCGAUGGAGACAUCGGAGAUUGAGAAGGCCGAUGUACCG (puzzle (switch architecture): Same State NG 2),11.8,382,–,–,–
AAAAAUUCUUAAGGAUAUCAGUGGCAAAGCCACUGAGAAGGUGAGGAUCACCCACCUACGUGACGCUGGAAACAGCGUCACGAA [#SharedSequence ExNG1 - 29] (puzzle (switch architecture): Exclusion NG 1),18.8,16.6,–,–,–
CCAUAAAAGAUCCAUUUUUACAACAUGAGGAUCACCCAUGUGCAGGAUAUCGUGAAAGUUAAAUACGAGAAGGGCAAGAACUGC [JR_ExcNG3_Sub050],–,–,104,105,–
AUCAGCUCGUCAGGAUAUACGUCACUGCUUCGGCAGUGUGGUAAGAUCACAUGAGGAUCACCCAUGUAGAAGGGACGAGCUGAU [#EX_NG2_M81 #GC_VS_GU_SWITCHING] (puzzle (switch architecture): Exclusion NG 2),258,13.4,–,–,–
CGCUAUAACAUGAGGAUCACCCAUGUAUACAUGGAAUUGACGUAGGAUAUGCAGUUGAUUAUAGUGCAGAAGGACGGUAUAGCG [JR #DistanceFar #Hairpin #Noisy #NP SSNG3 Sub069] (puzzle (switch architecture): Same State NG 3),37.3,101,–,–,–
UAUAUAUAGGCAGGAUAUACAUGAAUAUAUAAUAUAAUAUAUAAUAUAACAUGAGGAUCACCCAUGUAGAAGGGCCAUAAUAUA [LRO031_Exclusion NG 2],–,–,109,48.6,–
CCUUUAAAGAUCCAAAAUUACAACAUGAGGAUCACCCAUGUGCAGGAUAUCGUGCCAGUGAUGUACGAGAAGGGCAGACUCUGC [salish99_ExNG3_r2_015],–,–,95.2,105,–
AGGACAGGCAGAGCGCAACGGCGUACAUGAGGAUCACCCAUGUAGGAUAUACUACACAAAGUGUAGUAGAAGGACAUGCGACGC [Ex NG2 #88],–,–,45.6,16.1,–
GUAGCAUACCGAGGAUAUUCAUCCGGAUUACGGACAUGAGGAUCACCCAUGUGGCGAAAGCCUUGGGAGAAGGCGGAAUGCUAC [Xeinanis 75 33],–,–,–,–,apparent KD of MS2 coat protein (MS2 coat protein [3]; input ligand: FMN 200 uM): 34.4 nM; apparent KD of MS2 coat protein (MS2 coat protein [3]; input ligand: none): 369 nM
UAUAUAUAGGCAGGAUAUACAUGUAUAUAUAAUUUUUUAUAUAUUAUUACAUGAGGAUCACCCAUGUAGAAGGGCCUUAUUAUA [LRO039_Exclusion NG 2],–,–,62.8,46.9,–
UAUAUAUGGUGAGGAUAUGCAGAGGAUCACCCUGUAGAAGGCAUCAGGGUAGAAGGUGCAAGGAUCACCUGUAAGGAUAUAUCC [pwkr2 ssNG1 DX.30],–,–,–,–,apparent KD of MS2 coat protein (MS2 coat protein [3]; input ligand: FMN 200 uM): 587 nM; apparent KD of MS2 coat protein (MS2 coat protein [3]; input ligand: none): 1370 nM
CGAAGUCCGUAGAAGGGUGACAUGAGGAUCACCCAUGUGCGAGCCGAUGGAGUCAGCGGCUCGCCACAGGAUAUACGGAGCACG [Isdiesrama] (puzzle (switch architecture): Inverted Same State NG 2),22.3,180,–,–,–
CACACAUGGUGAGGAUAUGCAGAGGAUCACCCUGUAGAAGGCAUCAGGGUAGAAGGUGCAAGGAUCACCUGUAAGGAUAUAUCC [pwkr2 ssNG1 DX.27],–,–,–,–,apparent KD of MS2 coat protein (MS2 coat protein [3]; input ligand: FMN 200 uM): 1030 nM; apparent KD of MS2 coat protein (MS2 coat protein [3]; input ligand: none): 1430 nM
GGCUUAAACACAGGAUAUAGCCUUAGAGUGAGGCUAGAAGGGUGAAGUUCUCAUACAUGAGGAUCACCCAUGUCACGGAGGCUA [Atteedbian],–,–,–,–,apparent KD of MS2 coat protein (MS2 coat protein [3]; input ligand: FMN 200 uM): 307 nM; apparent KD of MS2 coat protein (MS2 coat protein [3]; input ligand: none): 37.1 nM
AAAACAUACCGAGGAUAUUCAUUUUAUAAAUAAACAUGAGGAUCACCCAUGUGGCAAAAGCCUAGGGAGAAGGCGGAAUGCUAA [salish99_SSNG2_r2_121],–,–,–,–,apparent KD of MS2 coat protein (MS2 coat protein [3]; input ligand: FMN 200 uM): 29.9 nM; apparent KD of MS2 coat protein (MS2 coat protein [3]; input ligand: none): 39.6 nM
